Data on one molecule can be found in patent publication US20240301038A1.

The target of this assay is SARS-CoV-2 Spike Receptor Binding Domain (RBD) (Sino Biological) (SARS-CoV-2), P0DTC2. The conditions noted are these: remark: other sources report otherwise.

By Kd is commonly meant the constant that tells how readily two partners part at equilibrium. A high value points to weaker binding.

B1: AB-009620 (antibody, V domains shown)
VH: QITLKESGPTLVKPTQTLTLTCTFSGFSLSTSGVGVGWIRQPPGKALEWLALIYWDDDKRYSPSLKSRLTITKDTSKNQVVLTMTNMDPVDTATYYCAHHEVATVFDYWGQGTLVTVSS
VL: QSALTQPASVSGSPGQSITISCTGTSSDVGAYNYVSWYQQHPGKAPKLMIYEVSNRPSGVSNRFSGSKSGNTASLTISGLQAEDEADYYCSSYTSSSTVFGGGTKLTVL
B1: the Kd is 5.99 nM.
